The values that follow come from patent publication US10550165B2, “Peptide for inducing regeneration of tissue and use thereof” (STEMRIM INC., priority 2011, dated 2020).

The conditions of assay [1]: Youn et al., J Immunol 2008; cited from earlier work.
A further assay concerns mesoangioblasts. Particulars: Palumbo et al., J. Cell Biol. 2004; cited from earlier work.
Assay [2] relates to mouse bone marrow mesenchymal stem cell line (MSC-1 cells), PDGFRα-positive. Description: Migration assay (Boyden / 48-well chemotaxis chamber) on bone marrow mesenchymal stem cell line MSC-1. It counts as cell-based. The procedure, abridged: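 Mouse MSC-1 cells (3×10^6 cells/ml in D-MEM with 10% FBS) loaded in the upper wells of a 48-well Boyden chamber with 8 μm polycarbonate membrane; mouse HMGB1 peptides or HEK293-made HMGB1 in lower wells at 100 μg/ml, 5 μM or 10 μM; PBS as negative control. After 4 h at 37° C, migrated cells were Diff-Quik stained.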

In assay [3] the test system is human-derived bone marrow mesenchymal stem cells (hMSC). Description: Migration assay on human-derived bone marrow mesenchymal stem cells. It counts as cell-based. The note with it: human HMGB1 fragments produced in E. coli, 2 μM, FIG. 21B. An excerpt: Human HMGB1 fragments (2-215, 2-84, 2-44, 45-84, 85-169, 89-185, 89-195, and 89-205) were produced in E. coli and purified using appropriate columns in the same manner as described in Examples 14, 15, and 16 above. However, 89-215 was purified by the same method as used for 89-205 in Example 15.
Using human-derived bone marrow mesenchymal stem cells, each fragment was examined by the same migration assay performed on mouse-derived bone marrow mesenchymal stem cells (MSC-1) as described above. The fragments were used at a final concentration of 2 μM. The human-derived bone marrow mesenchymal stem cells used were hMSC (human Mesenchymal Stem Cell, Takara) at fourth passage. The growth medium used was a mesenchymal stem cell growth medium (MF medium, TOYOBO). The cells were cultured in an incubator under 5% CO2 at 37° C. The medium was changed with a fresh medium every two to four days. The cells were passaged when they reached 80% confluency.

Setting [4] is: produced in E. coli, 2 μM, FIGS. 20B and 20C.
The mark [5] stands for this setting: human HMGB1 fragments 89-215, 89-205, 89-195, 89-185 and their Q column fractions, E. coli, 2 μM, FIGS. 19B and 19D.
Where [6] appears, read: human HMGB1 fragments produced in E. coli, 2 μM, FIGS. 18C and 18D.

B1: amino acids 1 to 79: HMGB1 fragment of amino acids 1 to 79 (Youn et al.) (protein, UniProt P09429 1-79, looked up, fragment)
chain: MGKGDPKKPRGKMSSYAFFVQTCREEHKKKHPDASVNFSEFSKKCSERWKTMSAKEKGKFEDMAKADKARYEREMKTYI
Regarding B1, in assay [1], the LPS-binding activity result is given as “lack the LPS-binding activity”.

B2: amino acids of positions 1 to 176: HMGB1 sequence consisting of the amino acids of positions 1 to 176 (Palumbo et al.) (protein, UniProt P09429 1-176, looked up, fragment)
chain: MGKGDPKKPRGKMSSYAFFVQTCREEHKKKHPDASVNFSEFSKKCSERWKTMSAKEKGKFEDMAKADKARYEREMKTYIPPKGETKKKFKDPNAPKRPPSAFFLFCSEYRPKIKGEHPGLSIGDVAKKLGEMWNNTAADDKQPYEKKAAKLKEKYEKDIAAYRAKGKPDAAKKGVV
As to B2, the cell migration-promoting activity entry in the assay on mesoangioblasts is recorded as “almost no activity”.

B3: amino acids of positions 1 to 89: HMGB1 sequence consisting of the amino acids of positions 1 to 89 (Palumbo et al.) (protein, UniProt P09429 1-89, looked up, fragment)
chain: MGKGDPKKPRGKMSSYAFFVQTCREEHKKKHPDASVNFSEFSKKCSERWKTMSAKEKGKFEDMAKADKARYEREMKTYIPPKGETKKKF
With B3, the cell migration-promoting activity result with mesoangioblasts was “almost no activity”.

B4: amino acids 88 to 162: HMGB1 fragment of amino acids 88 to 162 (Youn et al.) (protein, UniProt P09429 88-162, looked up, fragment)
chain: KFKDPNAPKRPPSAFFLFCSEYRPKIKGEHPGLSIGDVAKKLGEMWNNTAADDKQPYEKKAAKLKEKYEKDIAAY
Consider B4, for which the LPS-binding activity result in assay [1] is listed as “lack the LPS-binding activity”.

B5: Human HMGB1 fragment (85-169): human HMGB1 fragment, positions 85 to 169, produced in E. coli (protein, UniProt P09429 85-169, looked up, fragment)
chain: TKKKFKDPNAPKRPPSAFFLFCSEYRPKIKGEHPGLSIGDVAKKLGEMWNNTAADDKQPYEKKAAKLKEKYEKDIAAYRAKGKPD
For B5, the “migration-promoting activity compared with 2-215” value in assay [2] (produced in E. coli, 2 μM, FIG. 20A) is recorded as “stronger migration-promoting activity on bone marrow mesenchymal stem cells than human HMGB1 fragment (2-215)”. In assay [2] (setting [4]), the “migration-promoting activity per equal mass (reference taken as 1)” value turned out to be 3.6 times and the “migration-promoting activity per molar (reference taken as 1)” value was determined as 1.59 times. Besides, in assay [3], the migration-promoting activity entry was “greater than that of human HMGB1 fragment (2-215)”.

B6: 89-195: human HMGB1 fragment, positions 89 to 195, produced in E. coli (protein, UniProt P09429 89-195, looked up, fragment)
chain: FKDPNAPKRPPSAFFLFCSEYRPKIKGEHPGLSIGDVAKKLGEMWNNTAADDKQPYEKKAAKLKEKYEKDIAAYRAKGKPDAAKKGVVKAEKSKKKKEEEEDEEDEE
For B6, the migration-promoting activity entry was “stronger activity than any fragments between positions 89 and 215” in assay [2] (setting [5]); “exhibited stronger activity” in assay [3].

B7: amino acids of positions 1 to 187: HMGB1 sequence of positions 1 to 187 resulting from cleavage at the C terminal end (Palumbo et al.) (protein, UniProt P09429 1-187, looked up, fragment)
chain: MGKGDPKKPRGKMSSYAFFVQTCREEHKKKHPDASVNFSEFSKKCSERWKTMSAKEKGKFEDMAKADKARYEREMKTYIPPKGETKKKFKDPNAPKRPPSAFFLFCSEYRPKIKGEHPGLSIGDVAKKLGEMWNNTAADDKQPYEKKAAKLKEKYEKDIAAYRAKGKPDAAKKGVVKAEKSKKKKEE
Consider B7, for which the cell migration-promoting activity entry in the assay with mesoangioblasts is recorded as “retains the cell migration-promoting activity of HMGB1”.

B8: 2-84: human HMGB1 fragment, positions 2 to 84, produced in E. coli (protein, UniProt P09429 2-84, looked up, fragment)
chain: GKGDPKKPRGKMSSYAFFVQTCREEHKKKHPDASVNFSEFSKKCSERWKTMSAKEKGKFEDMAKADKARYEREMKTYIPPKGE
Turning to B8, the migration-promoting activity result is “exhibited migration-promoting activity” in assay [2] (fragment 2-84 and fusions with acidic tail fragments, produced in E. coli, FIG. 21D); “showed migration-promoting activity on bone marrow mesenchymal stem cells” in assay [2] (human HMGB1 fragments produced in E. coli, 2 μM, FIG. 18B); “greater than human HMGB1 fragment (2-215)” in assay [3]. The “migration-promoting activity per equal mass, 2-215 taken as 1” value in assay [2] (setting [6]) is reported as 5.5 times. Also, the “migration-promoting activity per molar concentration, 2-215 taken as 1” value in assay [2] (setting [6]) is recorded as 2.37 times.

B9: 89-185: human HMGB1 fragment, positions 89 to 185, produced in E. coli (protein, UniProt P09429 89-185, looked up, fragment)
chain: FKDPNAPKRPPSAFFLFCSEYRPKIKGEHPGLSIGDVAKKLGEMWNNTAADDKQPYEKKAAKLKEKYEKDIAAYRAKGKPDAAKKGVVKAEKSKKKK
In the case of B9, the migration-promoting activity entry is “stronger activity than any fragments between positions 89 and 215” in assay [2] (setting [5]); “exhibited stronger activity” in assay [3].

B10: amino acids of positions 90 to 176: HMGB1 sequence consisting of the amino acids of positions 90 to 176 (Palumbo et al.) (protein, UniProt P09429 90-176, looked up, fragment)
chain: KDPNAPKRPPSAFFLFCSEYRPKIKGEHPGLSIGDVAKKLGEMWNNTAADDKQPYEKKAAKLKEKYEKDIAAYRAKGKPDAAKKGVV
For B10, in the assay with mesoangioblasts, the cell migration-promoting activity result is given as “almost no activity”.
